Data reported in PMC10163920 (European journal of cell biology, 2022).
Ends that are not written are not given here.

Assays:
Assay in all cases: fluorescence polarisation
[1] = target: Rabbit skeletal muscle actin (unlabeled actin monomers) (rabbit) (UniProt P68135)
[2] = target: profilin-1 C71G (ALS-associated variant) (UniProt P07737 1-140, C71G)
[3] = target: profilin-1 A20T (ALS-associated variant) (UniProt P07737 1-140, A20T)
[4] = target: profilin-1 E117G (ALS-associated variant) (UniProt P07737 1-140, E117G)
Chain of profilin-1 E117G (ALS-associated variant) (P07737 whole entry E117G): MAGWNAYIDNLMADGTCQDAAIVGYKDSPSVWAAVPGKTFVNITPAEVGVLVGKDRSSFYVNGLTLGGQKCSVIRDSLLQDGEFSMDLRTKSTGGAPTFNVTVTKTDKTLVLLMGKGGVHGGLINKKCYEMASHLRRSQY

[5] = target: profilin-1 R136W (ALS-associated variant) (UniProt P07737 1-140, R136W)
Chain of profilin-1 R136W (ALS-associated variant) (P07737 whole entry R136W): as the sequence (P07737 whole entry E117G) above, with G117E, R136W counted along it

[6] = target: profilin-1 M114T (ALS-associated variant) (UniProt P07737 1-140, M114T)
Chain of profilin-1 M114T (ALS-associated variant) (P07737 whole entry M114T): as the sequence (P07737 whole entry E117G) above, with M114T, G117E counted along it

[7] = target: profilin-1 T109M (ALS-associated variant) (UniProt P07737 1-140, T109M)
Chain of profilin-1 T109M (ALS-associated variant) (P07737 whole entry T109M): as the sequence (P07737 whole entry E117G) above, with T109M, G117E counted along it

[8] = target: profilin-1 (wild-type) (UniProt P07737 1-140)
Chain of profilin-1 (wild-type) (UniProt P07737 1-140) (P07737 whole entry): as the sequence (P07737 whole entry E117G) above, with G117E counted along it

[9] = target: profilin-1 G118V (ALS-associated variant) (UniProt P07737 1-140, G118V)
Chain of profilin-1 G118V (ALS-associated variant) (P07737 whole entry G118V): as the sequence (P07737 whole entry E117G) above, with G117E, G118V counted along it

[10] = target: profilin-1 Q139L (ALS-associated variant) (UniProt P07737 1-140, Q139L)
Chain of profilin-1 Q139L (ALS-associated variant) (P07737 whole entry Q139L): as the sequence (P07737 whole entry E117G) above, with G117E, Q139L counted along it

[11] = target: profilin-1 H120E (actin-binding impaired control) (UniProt P07737 1-140, H120E)
Chain of profilin-1 H120E (actin-binding impaired control) (P07737 whole entry H120E): as the sequence (P07737 whole entry E117G) above, with G117E, H120E counted along it

Chain of profilin-1 A20T (ALS-associated variant) (P07737 whole entry A20T): as the sequence (P07737 whole entry E117G) above, with A20T, G117E counted along it
Chain of profilin-1 C71G (ALS-associated variant) (P07737 whole entry C71G): as the sequence (P07737 whole entry E117G) above, with C71G, G117E counted along it

Molecule: profilin-1 R88E (actin-binding impaired control) (from UniProt P07737 1-140) (natural protein)
- Kd [1]: 3720 nM

Molecule: profilin-1 (wild-type) (from UniProt P07737 1-140) (natural protein; other documents disagree on this pair)
- Kd [1]: 99.6 nM

B1: FITC-mDia1-derived poly-L-proline (PLP) peptide (peptide)
peptide: IPPPPPLPGVASIPPPPPLPG
modifications: also: FITC, position not given here
- binding result [2]: binds
- Kd [3]: 1650 nM
- binding result [4]: binds
- binding result [5]: binds
- Kd [6]: 2040 nM
- binding result [7]: binds
- Kd [8]: 2710 nM
- Kd [9]: 2090 nM
- Kd [10]: 3470 nM
- binding result [11]: binds
